Experiment in all cases: two-hybrid library CCNG1;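 note: natural log of median RNA to DNA barcode read ratio; higher means stronger binding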
In one test the target is T1, O10-bP.
T1 chain: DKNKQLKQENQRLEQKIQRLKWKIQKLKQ

A further test has as its target T2, O11-bP.
T2 chain: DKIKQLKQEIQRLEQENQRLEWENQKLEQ

In the next test the target is T3, O12-bP.
T3 chain: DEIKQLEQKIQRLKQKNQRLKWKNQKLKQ

Another test concerns the target T4, O13-bP.
T4 chain: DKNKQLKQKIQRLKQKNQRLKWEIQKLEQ

A further test concerns the target T5, O14-bP.
T5 chain: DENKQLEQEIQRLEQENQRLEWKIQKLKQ

For another test, the target named is T6, O15-bP.
T6 chain: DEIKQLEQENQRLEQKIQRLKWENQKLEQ

A further test has as its target T7, O16-bP.
T7 chain: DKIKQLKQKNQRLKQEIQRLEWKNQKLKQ

The target of the next test is T8, O2-bP.
T8 chain: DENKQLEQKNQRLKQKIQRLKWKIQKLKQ

For a further test, the target named is T9, O3-bP.
T9 chain: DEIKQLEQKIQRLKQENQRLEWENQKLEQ

The target in another test is T10, O4-bP.
T10 chain: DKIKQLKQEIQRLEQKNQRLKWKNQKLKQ

A further test addresses T11, O5-bP.
T11 chain: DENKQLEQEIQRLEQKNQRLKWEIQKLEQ

A further test deals with T12, O6-bP.
T12 chain: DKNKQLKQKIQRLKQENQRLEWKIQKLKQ

The target in another test is T13, O7-bP.
T13 chain: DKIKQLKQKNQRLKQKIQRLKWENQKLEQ

For another test, the target named is T14, O8-bP.
T14 chain: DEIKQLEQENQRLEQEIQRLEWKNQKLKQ

The target of a further test is T15, O9-bP.
T15 chain: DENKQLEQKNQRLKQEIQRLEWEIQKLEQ

A further test has as its target T16, O1-bP.
T16 chain: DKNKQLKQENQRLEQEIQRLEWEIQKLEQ

The target in the next test is T17, P11SHb.
T17 chain: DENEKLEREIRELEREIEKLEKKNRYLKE

The target of another test is T18, P12SHb.
T18 chain: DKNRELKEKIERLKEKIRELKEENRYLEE

Another test concerns the target T19, P1SHb.
T19 chain: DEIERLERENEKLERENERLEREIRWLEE

The target of the next test is T20, P2SHb.
T20 chain: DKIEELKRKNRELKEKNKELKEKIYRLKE

A further test deals with T21, P3SHb.
T21 chain: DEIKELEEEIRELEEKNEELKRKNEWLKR

The target in another test is T22, P4SHb.
T22 chain: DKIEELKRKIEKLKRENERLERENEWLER

For the next test, the target named is T23, P6SHb.
T23 chain: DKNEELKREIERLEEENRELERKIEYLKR

A further test concerns the target T24, P7SHb.
T24 chain: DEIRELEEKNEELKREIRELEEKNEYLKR

The target in a further test is T25, P8SHb.
T25 chain: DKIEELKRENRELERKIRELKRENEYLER

For another test, the target named is T26, P9SHb.
T26 chain: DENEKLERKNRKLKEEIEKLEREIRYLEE

Our source for the interaction score values is paper PMC10397247.

Where two headings read alike, the source gives them in different places.

In the case of DKNKQLKQENQRLEQKIQRLKWKIQKLKQ [O10-bP], the interaction score is -0.552 in the test with O10-bP (mean of both orientations); -1.97 in the test with O11-bP; -1.28 in the test with O12-bP; -0.892 with O13-bP; -0.56 with O14-bP; -0.788 with O15-bP. Moreover, the interaction score with O16-bP was -0.76; with O2-bP, 0.624; in the test with O3-bP, -0.676; in the test with O4-bP, -0.826; with O5-bP it was -0.843; in the test with O6-bP it was -1.19. For the same molecule, the results for the interaction score in the test with O7-bP, with O8-bP and in the test with O9-bP (mean of both orientations) were -1.18, -1.81 and 0.966, respectively.

Regarding DKNKQLKQENQRLEQEIQRLEWEIQKLEQ [O1-bP], the interaction score in the test with O1-bP was -0.355; in the test with O10-bP, -0.164; with O11-bP, -0.513; in the test with O12-bP it was -1.11; with O13-bP, -0.754; with O14-bP, -1.51. Moreover, the interaction score in the test with O15-bP was -1.88; in the test with O16-bP it was -0.714; in the test with O2-bP it was 1.06; with O3-bP, -1.35; with O4-bP, -1.05; in the test with O5-bP, -1.22. The interaction score with O6-bP was -0.442; with O7-bP, -1.06; with O8-bP, -1.95; with O9-bP, 1.31.

For DENEKLEREIRELEREIEKLEKKNRYLKE [P11SHb], the interaction score with P11SHb is 0.241; with P12SHb, 1.61; with P1SHb, -0.267; with P2SHb, 0.79; in the test with P3SHb, -0.138; with P4SHb, 0.998. Further, the interaction score was 1.17 in the test with P6SHb, 0.246 with P7SHb, -0.421 with P8SHb and 0.702 in the test with P9SHb.
